Biological target: the molecule itself
Test: crystal structure

B1: closed-gate E71V KcsA (C-terminal tail removed by chymotrypsin) (domain or fragment)
chain: PMLSGLLARLVKLLLGRHGSALHWRAAGAATVLLVIVLLAGSYLAVLAERGAPGAQLITYPRALWWSVVTATTVGYGDLYPVTLWGRLVAVVVMVAGITSFGLVTAALATWFVGREQERRGH
stoichiometry N: 4

From article doi:10.1101/2021.09.22.461404 (bioRxiv, 2021)
